Results published in FireProtDB (doi:10.1016/j.jmb.2005.06.006).
Several values for one entry are separate records, joined by “and”; a condition that tells them apart may be missing. Equal entries are not always repeated.

B1: Tryptophan synthase alpha chain, P0A877 (parent)
chain: MERYESLFAQLKERKEGAFVPFVTLGDPGIEQSLKIIDTLIEAGADALELGIPFSDPLADGPTIQNATLRAFAAGVTPAQCFEMLALIRQKHPTIPIGLLMYANLVFNKGIDEFYAQCEKVGVDSVLVADVPVEESAPFRQAALRHNVAPIFICPPNADDDLLRQIASYGRGYTYLLSRAGVTGAENRAALPLNHLVAKLKEYNAAPPLQGFGISAPDQVKAAIDAGAAGAISGSAIVKIIEQHINEPEKMLAALKVFVQPMKAATRS

Variants of: B1
Details: Escherichia coli (strain K12); pH 7.8; 25 °C; Urea; CD; Potassium phosphate 10 mM; transition: 3; structure 1WQ5; whole UniProt chain shown

Variant | ddG of mutation (higher = less stable) | unfolding free energy | denaturant m value
MERYESLFAQLKERKEGAFVPFVTLGDPGIEQSLKIADTLIEAGADALELGIPFSDPLADGPTIQNATLRAFAAGVTPAQCFEMLALIRQKHPTIPIGLLMYANLVFNKGIDEFYAQCEKVGVDSVLVADVPVEESAPFRQAALRHNVAPIFICPPNADDDLLRQIASYGRGYTYLLSRAGVTGAENRAALPLNHLVAKLKEYNAAPPLQGFGISAPDQVKAAIDAGAAGAISGSAIVKIIEQHINEPEKMLAALKVFVQPMKAATRS [I37A] | 1.41 kcal/mol and 3.01 kcal/mol | 4.72 kcal/mol and 1.71 kcal/mol | –
MERYESLFAQLKERKEGAFVPFVTLGDPGIEQSLKIIDTLIEAGADALELGIPFSDPLADGPTIQNATLRAFAAGVTPAQCFEMLALIRQKHPTIPIGALMYANLVFNKGIDEFYAQCEKVGVDSVLVADVPVEESAPFRQAALRHNVAPIFICPPNADDDLLRQIASYGRGYTYLLSRAGVTGAENRAALPLNHLVAKLKEYNAAPPLQGFGISAPDQVKAAIDAGAAGAISGSAIVKIIEQHINEPEKMLAALKVFVQPMKAATRS [L99A] | 1.69 kcal/mol and 2.38 kcal/mol | 4.44 kcal/mol and 2.34 kcal/mol | 2.39 kcal/mol/M and 0.94 kcal/mol/M
MERYESLFAQLKERKEGAFVPFVTLGDPGIEQSLKIIDTLIEAGADALELGIPFSDPLADGPTIQNATLRAFAAGVTPAQCFEMLALIRQKHPTIPIGLLMYANLVFNKGIDEFYAQCEKVGVDSVAVADVPVEESAPFRQAALRHNVAPIFICPPNADDDLLRQIASYGRGYTYLLSRAGVTGAENRAALPLNHLVAKLKEYNAAPPLQGFGISAPDQVKAAIDAGAAGAISGSAIVKIIEQHINEPEKMLAALKVFVQPMKAATRS [L127A] | 0.73 kcal/mol and 0.55 kcal/mol | 5.4 kcal/mol and 4.17 kcal/mol | 2.55 kcal/mol/M and 1.1 kcal/mol/M
MERYESLFAQLKERKEGAFVPFVTLGDPGIEQSLKIIDTLIEAGADALELGIPFSDPLADGPTIQNATLRAFAAGVTPAQCFEMLALIRQKHPTIPIGLLMYANLVFNKGIDEFYAQCEKVGVDSVLVADVPVEESAPFRQAALRHNVAPIFICPPNADDDLLRQIASYGRGYTYALSRAGVTGAENRAALPLNHLVAKLKEYNAAPPLQGFGISAPDQVKAAIDAGAAGAISGSAIVKIIEQHINEPEKMLAALKVFVQPMKAATRS [L176A] | 2.88 kcal/mol and 1.13 kcal/mol | 3.25 kcal/mol and 3.59 kcal/mol | 2.16 kcal/mol/M and 1.01 kcal/mol/M
